Substitutions are numbered along the chain they refer to.
T1: SNAP25 Peptide 2 (PEP2) (Homo sapiens, UniProt P60880 SEQ:1-37)
T1 chain: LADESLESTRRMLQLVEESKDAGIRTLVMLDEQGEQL

B1: PEP 4.16 (ssDNA)
DNA: TTTTTAACACGACAGACCTGTGATGGTCGAACTCCATGCATGTGGGCCCATG
B2: PEP 4.09 (ssDNA)
DNA: TTTTTAACACGACATATGTTCGACGGACACAGTGTGTGGCGGTCGTGCCATG
B3: PEP 4.20 (ssDNA)
DNA: TTTTTAAGCCCACACGTGTTCGGATCGCACAGTTATTGGCAGTCGTGCCATG
B4: PEP 4.03 (ssDNA)
DNA: TTTTTAACACGACAGGGGTTCGTAGGACACAGGTTGATGTTGTGGGCCCATG
B5: PEP 4.17 (ssDNA)
DNA: TTTTTAAGCCCACGCCAGTTCGGTCAACGAACTACGGTGATGTGGGCCCATG
B6: PEP 4.11 (ssDNA)
DNA: TTTTTAAGCCCACCCGAGTTCGTCCAGCGAACCACGCGCGTGTCGTGCCATG
B7: PEP 4.07 (ssDNA)
DNA: TTTTTAAGCCCACTCGTGTTCGCACACCGAACCACAAGCTAGTGGGCCCATG
B8: PEP 4.19 (ssDNA)
DNA: TTTTTAAGCCCACAAGCGTTCGGCTCTCATAGATCGTTGACGTGGGCCCATG
B9: PEP 4.15 (ssDNA)
DNA: TTTTTAACACGACGTGACTGTGAGAGGCACAGTTTGGGGGCGTGGGCCCATG
B10: PEP 4.08 (ssDNA)
DNA: TTTTTAACACGACCATTCTGTGCCAGCCGAACTCCGTGCTGGTGGGCCCATG
B11: PEP 4.10 (ssDNA)
DNA: TTTTTAAGCCCACAAGACTGTGCGTCGCACAGATTGGCATCGTCGTGCCATG
B12: PEP 4.12 (ssDNA)
DNA: TTTTTAACACGACAGCCCTGTGCAGGCCGAACGGCGTTGATGTCGTGCCATG
B13: PEP 4.05 (ssDNA)
DNA: TTTTTAAGCCCACATAAGTTCGCAAGTCACAGCGATGTGATGTCGTGCCATG
B14: PEP 4.21 (ssDNA)
DNA: TTTTTAAGCCCACGGGGCTGTGAGCAACGAACATTGGCACAGTCGTGCCATG
B15: PEP 4.04 (ssDNA)
DNA: TTTTTAAGCCCACGATCCTGTGCTTCGCACAGCTCGAGCTAGTGGGCCCATG
B16: PEP 4.14 (ssDNA)
DNA: TTTTTAAGCCCACAAAAGTTCGGGCAGCACAGGTCGCTGAGGTCGTGCCATG
B17: PEP 4.13 (ssDNA)
DNA: TTTTTAAGCCCACGGCCGTTCGGCCACCACAGTGTGGCAGCGTCGTGCCATG
B18: PEP 4.18 (ssDNA)
DNA: TTTTTAACACGACTATTCTGTGAGTCTCGAACTGCGACAACGTGGGCCCATG
B19: PEP 4.06 (ssDNA)
DNA: TTTTTAAGCCCACGAGAGTTCGATAGTCACAGATTGGCACCGTCGTGCCATG
B20: PEP 4.22 (ssDNA)
DNA: TTTTTAAGCCCACGGTGCTGTGGAAGCCACAGTACAATGGAGTGGGCCCATG
B21: PEP 2.07 (ssDNA)
DNA: TTTTTAACACGACGTCGCTGTGGTCAACGAACAGATACAACGTCGTGCCATG
modifications: W indole, X amine, Y phenol modified dU [15,19,24,36,43,46]
B22: PEP 2.10 (ssDNA)
DNA: TTTTTAAGCCCACTGGCCTGTGGTCAGCGAACTGTGCGCTGGTGGGCCCATG
modifications: W indole, X amine, Y phenol modified dU [14,19,24,35,40]
B23: PEP 2.13 (ssDNA)
DNA: TTTTTAAGCCCACATGCCTGTGGTCATCGAACATTGGGCCGGTCGTGCCATG
modifications: W indole, X amine, Y phenol modified dU [15,19,24,27,34,35,43,46]
B24: PEP 2.02 (ssDNA)
DNA: TTTTTAAGCCCACATACGTTCGATGGTCACAGATTGGGCAAGTCGTGCCATG
modifications: W indole, X amine, Y phenol modified dU [15,19,20,24,27,34,35,43,46]
B25: PEP 2.04 (ssDNA)
DNA: TTTTTAACACGACATGGCTGTGGTCATCACAGCGCACCATTGTCGTGCCATG
modifications: W indole, X amine, Y phenol modified dU [15,19,24,27,40,43,46]
B26: PEP 2.01 (ssDNA)
DNA: TTTTTAACACGACGTTACTGTGGTCACCACAGGATGAGCCTGTCGTGCCATG
modifications: W indole, X amine, Y phenol modified dU [15,16,19,24,35,43,46]
B27: PEP 2.15 (ssDNA)
DNA: B26 DNA with C40T
modifications: W indole, X amine, Y phenol modified dU [15,16,19,24,35,40,43,46]
B28: PEP 2.18 (ssDNA)
DNA: B26 DNA with C27T
modifications: W indole, X amine, Y phenol modified dU [15Y,16W,19Y,24W,27X,35Y,43X,46Y]
B29: PEP 2.17 (ssDNA)
DNA: B26 DNA with C39G
modifications: W indole, X amine, Y phenol modified dU [15,16,19,24,35,43,46]
B30: PEP 2.16 (ssDNA)
DNA: TTTTTAAGCCCACATAGGTTCGGTGGTCACAGTGTGGTGCGGTGGGCCCATG
modifications: W indole, X amine, Y phenol modified dU [15,19,20,24,27,35,38]
B31: PEP 2.08 (ssDNA)
DNA: TTTTTAAGCCCACGTTTGTTCGGTGGTCACAGCACGCCACGGTCGTGCCATG
modifications: W indole, X amine, Y phenol modified dU [15,16,17,19,20,24,27,43,46]
B32: PEP 2.14 (ssDNA)
DNA: TTTTTAAGCCCACGGGTCTGTGGTCACCGAACGACGTGGCAGTGGGCCCATG
modifications: W indole, X amine, Y phenol modified dU [17,19,24]
B33: PEP 2.12 (ssDNA)
DNA: TTTTTAACACGACTAGACTGTGTATCCCACAGGGCAATGTGGTCGTGCCATG
modifications: W indole, X amine, Y phenol modified dU [14,19,23,25,38,40,43,46]
B34: PEP 2.03 (ssDNA)
DNA: TTTTTAACACGACGGTGCTGTGCTGGTCACAGCACGCGCGCGTCGTGCCATG
modifications: W indole, X amine, Y phenol modified dU [16,19,24,27,43,46]
B35: PEP 2.05 (ssDNA)
DNA: TTTTTAAGCCCACCCTACTGTGGTCACCACAGTGCAAGCCCGTCGTGCCATG
modifications: W indole, X amine, Y phenol modified dU [16,19,24,43,46]
B36: PEP 2.11 (ssDNA)
DNA: TTTTTAAGCCCACTTGGCTGTGCACATCACAGAACAAGCAGGTGGGCCCATG
modifications: W indole, X amine, Y phenol modified dU [14,15,19,27]
B37: PEP 2.06 (ssDNA)
DNA: TTTTTAACACGACCGGCCTGTGGTCAGCACAGACTGTTGTGGTCGTGCCATG
modifications: W indole, X amine, Y phenol modified dU [19,24,35,38,40,43,46]
B38: PEP 2.09 (ssDNA)
DNA: TTTTTAACACGACATAGGTTCGCTGGTCACAGAATGTTGTGGTGGGCCCATG
modifications: W indole, X amine, Y phenol modified dU [15,19,20,24,27,35,38,40]
B39: SNAP.07 (ssDNA)
DNA: TTTTTAACACGACCGGGCTGTGCACATCGAACACTGCGGTCGTCGTGCCATG
modifications: W indole, X amine, Y phenol modified dU [19,27,35,40,43,46]
B40: SNAP.04 (ssDNA)
DNA: TTTTTAAGCCCACCCACCTGTGGACATCGAACCTCACTGCAGTGGGCCCATG
modifications: W indole, X amine, Y phenol modified dU [19,27,34,38]
B41: SNAP.06 (ssDNA)
DNA: TTTTTAAGCCCACTTCGCTGTGAGCAACGAACATCGAGCAGGTCGTGCCATG
modifications: W indole, X amine, Y phenol modified dU [14,15,19,34,43,46]
B42: SNAP.03 (ssDNA)
DNA: TTTTTAAGCCCACGGGTGTTCGACAGACACAGCAATACATCGTGGGCCCATG
modifications: W indole, X amine, Y phenol modified dU [17,19,20,36,40]
B43: SNAP.08 (ssDNA)
DNA: TTTTTAACACGACTGAAGTTCGCCAGGCGAACATCGTGGTGGTCGTGCCATG
modifications: W indole, X amine, Y phenol modified dU [14,19,20,34,40,43,46]
B44: SNAP.05 (ssDNA)
DNA: TTTTTAAGCCCACCCCGGTTCGCCAGACGAACCCCAACAGTGTGGGCCCATG
modifications: W indole, X amine, Y phenol modified dU [19,20]
B45: SNAP.02 (ssDNA)
DNA: TTTTTAAGCCCACACTGCTGTGAAGGACACAGCCCGACATCGTCGTGCCATG
modifications: W indole, X amine, Y phenol modified dU [16,19,40,43,46]
B46: PEP 4.09 (ssDNA)
DNA: B2 DNA
modifications: W indole, X amine, Y phenol modified dU [15,17,19,20,35,43,46]
B47: PEP 4.11 (ssDNA)
DNA: B6 DNA
modifications: W indole, X amine, Y phenol modified dU [19,20,23,43,46]
B48: PEP 4.10 (ssDNA)
DNA: B11 DNA
modifications: W indole, X amine, Y phenol modified dU [19,25,34,35,40,43,46]

Target: SNAP25 Peptide 4 (PEP4, BoNT/A cleavage site region) (Homo sapiens, UniProt P60880 SEQ:1-24)
Test: ELONA
Conditions: label: biotin

Chain of SNAP25 Peptide 4 (PEP4, BoNT/A cleavage site region) (P60880 174-197): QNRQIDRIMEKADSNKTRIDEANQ

Point of comparison: B13, binding signal 170 ELISA signal. Against it:
- B1 — lower, 35 ELISA signal
- B2 — lower, 85 ELISA signal
- B3 — lower, 18 ELISA signal
- B4 — higher, 202 ELISA signal
- B5 — lower, 24 ELISA signal
- B6 — lower, 67 ELISA signal
- B7 — lower, 105 ELISA signal
- B8 — lower, 18 ELISA signal
- B9 — lower, 37 ELISA signal
- B10 — lower, 94 ELISA signal
- B11 — lower, 76 ELISA signal
- B12 — lower, 61 ELISA signal
- B14 — lower, 18 ELISA signal
- B15 — higher, 186 ELISA signal
- B16 — lower, 37 ELISA signal
- B17 — lower, 57 ELISA signal
- B18 — lower, 18 ELISA signal
- B19 — lower, 131 ELISA signal
- B20 — lower, 17 ELISA signal

Target: T1, SNAP25 Peptide 2 (PEP2)
Test: ELONA
Conditions: not given
Source text: (§1) The data in Table 2 was collected by running direct ELISA assays on the 96 X-aptamers, elucidating their ability to bind SNAP25, SNAP25 fragments (PEP1, PEP2, PEP3, and PEP4), and a negative control. The X-aptamers were biotinylated and immobilized onto streptavidin-coated plates and were utilized as detection molecules. Higher numbers represent strong binding. The negative control peptide is a random peptide to measure the amount of binding that occurs to a random amino acid sequence.

Point of comparison: B37, binding signal 102 ELISA signal. Against it:
- B21 — lower, 65 ELISA signal
- B22 — lower, 43 ELISA signal
- B23 — lower, 36 ELISA signal
- B24 — higher, 394 ELISA signal
- B25 — higher, 190 ELISA signal
- B26 — higher, 592 ELISA signal
- B27 — lower, 36 ELISA signal
- B28 — lower, 26 ELISA signal
- B29 — lower, 30 ELISA signal
- B30 — lower, 31 ELISA signal
- B31 — lower, 65 ELISA signal
- B32 — lower, 36 ELISA signal
- B33 — lower, 37 ELISA signal
- B34 — higher, 221 ELISA signal
- B35 — higher, 159 ELISA signal
- B36 — lower, 40 ELISA signal
- B38 — lower, 46 ELISA signal

Target: T2, SNAP25 full length (FLAG and MYC tagged) (Homo sapiens, UniProt P60880 SEQ:12-217)
Test: ELONA
Conditions: tags: FLAG and MYC
Source text: as §1

T2 sequence (P60880 whole entry): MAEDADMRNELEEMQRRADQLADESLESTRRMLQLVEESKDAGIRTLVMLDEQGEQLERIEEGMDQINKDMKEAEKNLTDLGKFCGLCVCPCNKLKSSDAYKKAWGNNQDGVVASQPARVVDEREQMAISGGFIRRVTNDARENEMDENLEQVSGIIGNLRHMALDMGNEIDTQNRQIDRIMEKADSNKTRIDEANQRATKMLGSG

Point of comparison: B39, binding signal 38 ELISA signal. Against it:
- B40 — higher, 83 ELISA signal
- B41 — higher, 45 ELISA signal
- B42 — higher, 92 ELISA signal
- B43 — lower, 35 ELISA signal
- B44 — higher, 75 ELISA signal
- B45 — higher, 95 ELISA signal

Target: T2, SNAP25 full length (FLAG and MYC tagged)
Test: ELONA; full-length SNAP25
Conditions: tags: FLAG and MYC
Source text: as §1

Point of comparison: B47, binding signal 0 ELISA signal. Against it:
- B46 — the same, 0 ELISA signal
- B48 — higher, 4 ELISA signal
